Measurements taken from PMC2626169 (Developmental biology, 2008).
Changes are numbered by the printed parent chain. In names and notes the source's numbering stands.

How the values were obtained:
[1] = target: T1, SEL-10(G567E) (C. elegans, UniProt Q93794 1-587, G567E); assay: two-hybrid
T1 sequence (looked up): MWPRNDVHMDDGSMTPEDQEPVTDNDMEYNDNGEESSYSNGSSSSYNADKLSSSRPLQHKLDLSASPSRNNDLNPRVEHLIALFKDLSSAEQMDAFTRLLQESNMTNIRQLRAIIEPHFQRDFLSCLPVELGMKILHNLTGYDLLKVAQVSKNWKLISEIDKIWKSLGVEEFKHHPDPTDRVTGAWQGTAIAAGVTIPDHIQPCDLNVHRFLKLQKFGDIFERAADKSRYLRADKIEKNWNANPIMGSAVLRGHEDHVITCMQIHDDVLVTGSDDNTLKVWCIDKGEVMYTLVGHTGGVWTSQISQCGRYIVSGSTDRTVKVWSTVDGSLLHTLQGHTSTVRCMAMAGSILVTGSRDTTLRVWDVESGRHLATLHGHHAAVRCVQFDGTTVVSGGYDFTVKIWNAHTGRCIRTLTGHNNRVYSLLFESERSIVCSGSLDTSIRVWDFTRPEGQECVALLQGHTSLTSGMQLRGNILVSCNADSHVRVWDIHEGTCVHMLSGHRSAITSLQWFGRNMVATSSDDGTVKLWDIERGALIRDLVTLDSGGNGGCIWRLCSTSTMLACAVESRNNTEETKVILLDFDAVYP

[2] = target: T2, SEL-10, wild type (C. elegans, UniProt Q93794 1-587); assay: two-hybrid
T2 sequence (looked up): T1 sequence (looked up) with E567G

B1: SKR-1 (Skp1-related 1), wild type (natural protein, C. elegans, UniProt G5ECU1 1-176, looked up)
chain: MADQKKVSEAAKEREIKISSSDNEIFLVPRNVIRLSNTINTLLMDLGLDDEEGTNAEPIPVQNVTASILKKVISWCNHHHSDPISTEDSDNREKRTDDIGSWDVEFLKVDQGTLFELILAANYLDIKGLLDVTCKTVANMIKGKSPEEIRRTFNIKNDFTPEEEEQIRKENAWCED
With B1 the “beta-galactosidase activity (CPRG), percent of SKR-1/SEL-10” value [1] was 3%.

B2: SKR-1(M140I) (natural protein, C. elegans, UniProt G5ECU1 1-176, looked up)
chain: B1 chain with M140I
For B2, the “beta-galactosidase activity (CPRG), percent of SKR-1/SEL-10” value [2] was 37% and the “beta-galactosidase activity (CPRG), percent of SKR-1/SEL-10” value [1] was 0.4%.
